In PMC4538830 one finds stoichiometry N data, which are given here for one molecule.

For the experiment, the target named is T1, full-length recombinant His tagged CTNNBL1 (human), Q8WYA6.
T1 chain: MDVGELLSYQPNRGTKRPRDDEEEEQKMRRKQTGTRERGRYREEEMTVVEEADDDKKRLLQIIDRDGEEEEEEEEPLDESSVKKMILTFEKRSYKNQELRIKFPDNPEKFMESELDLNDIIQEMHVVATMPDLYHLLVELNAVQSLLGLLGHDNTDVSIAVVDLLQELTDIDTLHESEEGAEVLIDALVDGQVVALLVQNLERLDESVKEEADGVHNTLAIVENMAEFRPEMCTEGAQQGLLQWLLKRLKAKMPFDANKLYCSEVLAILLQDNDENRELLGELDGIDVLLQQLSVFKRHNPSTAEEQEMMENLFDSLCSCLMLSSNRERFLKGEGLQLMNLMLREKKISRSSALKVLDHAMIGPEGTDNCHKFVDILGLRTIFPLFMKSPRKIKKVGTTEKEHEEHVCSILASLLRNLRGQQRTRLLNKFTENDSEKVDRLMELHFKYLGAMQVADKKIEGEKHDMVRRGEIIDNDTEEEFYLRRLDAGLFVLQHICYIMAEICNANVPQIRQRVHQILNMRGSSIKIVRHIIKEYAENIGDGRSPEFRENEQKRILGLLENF
Kind of experiment: SEC-MALS; CTNNBL1 (full length or [77–563]) alone; also in high salt buffer (0.5 M NaCl) or with CWC15[80–229] added; Supplementary Figure S7. Particulars: remark: other sources report otherwise.

B1: full-length recombinant His tagged CTNNBL1, Q8WYA6 1-563 (natural protein)
chain: MDVGELLSYQPNRGTKRPRDDEEEEQKMRRKQTGTRERGRYREEEMTVVEEADDDKKRLLQIIDRDGEEEEEEEEPLDESSVKKMILTFEKRSYKNQELRIKFPDNPEKFMESELDLNDIIQEMHVVATMPDLYHLLVELNAVQSLLGLLGHDNTDVSIAVVDLLQELTDIDTLHESEEGAEVLIDALVDGQVVALLVQNLERLDESVKEEADGVHNTLAIVENMAEFRPEMCTEGAQQGLLQWLLKRLKAKMPFDANKLYCSEVLAILLQDNDENRELLGELDGIDVLLQQLSVFKRHNPSTAEEQEMMENLFDSLCSCLMLSSNRERFLKGEGLQLMNLMLREKKISRSSALKVLDHAMIGPEGTDNCHKFVDILGLRTIFPLFMKSPRKIKKVGTTEKEHEEHVCSILASLLRNLRGQQRTRLLNKFTENDSEKVDRLMELHFKYLGAMQVADKKIEGEKHDMVRRGEIIDNDTEEEFYLRRLDAGLFVLQHICYIMAEICNANVPQIRQRVHQILNMRGSSIKIVRHIIKEYAENIGDGRSPEFRENEQKRILGLLENF
Take B1: the stoichiometry N came out at 3.

In general, stoichiometry N refers to the number of molecules, sites or subunits per partner or assembly.
